Measured values as given in patent US20150344570A1 (published 2015).

T1: FcgRIIa R (FcγRIIa type R) extracellular domain with C-terminal His tag (human, UniProt P12318 34-217)
T1 construct: extracellular domain; also called FcγRIIa R; not shown: His tag attached to the C terminus
T1 sequence (looked up): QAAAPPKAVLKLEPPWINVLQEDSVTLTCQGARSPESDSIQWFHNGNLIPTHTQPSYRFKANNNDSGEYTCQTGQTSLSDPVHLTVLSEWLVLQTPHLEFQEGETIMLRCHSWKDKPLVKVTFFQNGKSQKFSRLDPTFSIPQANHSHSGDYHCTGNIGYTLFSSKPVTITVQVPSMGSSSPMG

T2: FcgRIIa H (FcγRIIa type H) extracellular domain with C-terminal His tag (human, UniProt P12318 34-217)
T2 construct: extracellular domain; also called FcγRIIa H; not shown: His tag attached to the C terminus
T2 sequence (looked up): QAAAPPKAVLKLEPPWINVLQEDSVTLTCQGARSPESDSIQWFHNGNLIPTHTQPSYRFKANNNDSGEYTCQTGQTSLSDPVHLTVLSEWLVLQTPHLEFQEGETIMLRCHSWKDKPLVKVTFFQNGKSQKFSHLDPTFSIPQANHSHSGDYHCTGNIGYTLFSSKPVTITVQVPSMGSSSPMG

T3: FcgRIIb (FcγRIIb) extracellular domain with C-terminal His tag (human, UniProt P31994 43-217)
T3 construct: extracellular domain; not shown: His tag attached to the C terminus
T3 sequence (looked up): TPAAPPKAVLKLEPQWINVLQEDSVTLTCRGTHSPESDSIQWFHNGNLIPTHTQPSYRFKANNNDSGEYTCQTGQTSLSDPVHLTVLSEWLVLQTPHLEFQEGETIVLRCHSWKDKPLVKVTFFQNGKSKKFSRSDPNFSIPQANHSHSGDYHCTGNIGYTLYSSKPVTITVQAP


Tests used:
Experiment in all cases: SPR (Biacore); KD of H240-Kn061/H240-Hl071/L73-k0 divided by KD of the variant
[1] = biological target: T1, FcgRIIa R (FcγRIIa type R) …
Experimental: (§1) The antibodies were assessed for the binding to each FcgR. […] The resultant value was defined as relative KD, and used as an assessment indicator.
(§2) Analysis of interaction between objective antibody and the FcγR was carried out using Biacore T100 (GE Healthcare), Biacore T200, Biacore A100, and Biacore 4000. HBS-EP+ (GE Healthcare) was used as the running buffer, and the measurement temperature was set to 25° C. Chips produced by immobilizing the antigen peptide by the amine coupling method to a Series S sensor Chip CM5 (GE Healthcare), chips produced by allowing preliminarily biotinylated antigen peptides to interact with and immobilize onto a Series S Sensor Chip SA (certified) (GE Healthcare), chips produced by immobilizing Protein L (ACTIGEN, BioVision) to Series S Sencor Chip CM5 (GE Healthcare), or chips produced by immobilizing Protein A/G (Thermo Scientific) to Series S Sencor Chip CM5 (GE Healthcare) were used. Antibodies of interest were captured onto these chips, and allowed to interact to each FcγR diluted with running buffer.

[2] = biological target: T2, FcgRIIa H (FcγRIIa type H) …
Experimental: as §1, §2

[3] = biological target: T3, FcgRIIb (FcγRIIb) extracellular domain …
Experimental: as §1, §2

[4] = biological target: T4, FcgRIIIa F (FcγRIIIa type F) extracellular domain with C-terminal His tag (human, UniProt P08637 17-208)
T4 construct: extracellular domain; also called FcγRIIIa F; 3aF; not shown: His tag attached to the C terminus
T4 sequence (P08637 17-208): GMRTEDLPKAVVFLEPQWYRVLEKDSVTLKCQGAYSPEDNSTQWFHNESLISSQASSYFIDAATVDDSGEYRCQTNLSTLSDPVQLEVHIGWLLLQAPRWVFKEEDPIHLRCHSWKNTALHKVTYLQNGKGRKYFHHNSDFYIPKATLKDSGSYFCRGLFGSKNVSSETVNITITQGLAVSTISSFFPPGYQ
Experimental: as §1, §2

[5] = biological target: T5, FcgRIIIa V (FcγRIIIa type V) extracellular domain with C-terminal His tag (human, UniProt P08637 17-208)
T5 construct: extracellular domain; also called FcγRIIIa V; not shown: His tag attached to the C terminus
T5 sequence (P08637 17-208 F176V limits assumed): as the sequence (P08637 17-208) above, with F160V counted along it
Experimental: as §1, §2

Row | relative KD [1] [ratio] | relative KD [2] [ratio] | relative KD [3] [ratio] | relative KD [4] [ratio] | relative KD [5] [ratio] | Binder
1 | 4.2 | 2.4 | 3.4 | 2.4 | 2.9 | H240-Kn061/H240-Hl071/L73-k0 variant with S239V in H240-Kn061 (antibody, human IgG1, kappa, anti-epiregulin heterodimerized IgG1; also called H240-Kn061 S239V) heavy 1: QDQLVQSGAEVKKPGASVKVSCKASGFNIKDTYIQWVRQAPGQGLEWMGRIDPLRKQTKYREKFEGRVTITADTSTNTAYMELSSLRSEDTAVYYCVRSGREFDYWGQGTLVTVSSASTKGPSVFPLAPSSKSTSGGTAALGCLVKDYFPEPVTVSWNSGALTSGVHTFPAVLQSSGLYSLSSVVTVPSSSLGTQTYICNVNHKPSNTKVDKKVEPKSCDKTHTCPPCPAPEYYWGPVVFLFPPKPKDTLMISRTPEVTCVVVDVSDEDPEVKFNWYVDGVEVHNAKTKPREEQYNATYRVVSVLTVLHQDWLNGKEYKCKVSNKALPAPIEKTISKAKGQPREPQVCTLPPSRDELTKNQVSLWCLVKGFYPSDIAVEWESNGQPENNYKTTPPVLDSDGSFFLYSKLTVDKSRWQQGNVFSCSVMHEALHNHYTQKSLSLSP heavy 2: QDQLVQSGAEVKKPGASVKVSCKASGFNIKDTYIQWVRQAPGQGLEWMGRIDPLRKQTKYREKFEGRVTITADTSTNTAYMELSSLRSEDTAVYYCVRSGREFDYWGQGTLVTVSSASTKGPSVFPLAPSSKSTSGGTAALGCLVKDYFPEPVTVSWNSGALTSGVHTFPAVLQSSGLYSLSSVVTVPSSSLGTQTYICNVNHKPSNTKVDKKVEPKSCDKTHTCPPCPAPELLGGPSVFLFPPKPKDTLMISRTPEVTCVVVDVSHEDPEVKFNWYVDGVEVHNAKTKPREEQYNSTYRVVSVLTVLHQDWLNGKEYKCKVSNDALPMPIEETISKAKGQPREPQVYTLPPSRCELTKNQVSLSCAVKGFYPSDIAVEWESNGQPENNYKTTPPVLDSDGSFFLVSKLTVDKSRWQQGNVFSCSVMHEALHNHYTQKSLSLSP light: DIQMTQSPSSLSASVGDRVTITCRASQDIHKYIAWYQQKPGQAPRLLIQYTSTLQPGVPSRFSGSGSGTDYTFTISSLQPEDIATYYCLQYEQLRTFGGGTKVEIKRTVAAPSVFIFPPSDEQLKSGTASVVCLLNNFYPREAKVQWKVDNALQSGNSQESVTEQDSKDSTYSLSSTLTLSKADYEKHKVYACEVTHQGLSSPVTKSFNRGEC
2 | 3.2 | 2 | 2.2 | 2.2 | 2.8 | H240-Kn061/H240-Hl071/L73-k0 variant with S239M in H240-Kn061 (antibody, human IgG1, kappa, anti-epiregulin heterodimerized IgG1; also called H240-Kn061 S239M) heavy 1: QDQLVQSGAEVKKPGASVKVSCKASGFNIKDTYIQWVRQAPGQGLEWMGRIDPLRKQTKYREKFEGRVTITADTSTNTAYMELSSLRSEDTAVYYCVRSGREFDYWGQGTLVTVSSASTKGPSVFPLAPSSKSTSGGTAALGCLVKDYFPEPVTVSWNSGALTSGVHTFPAVLQSSGLYSLSSVVTVPSSSLGTQTYICNVNHKPSNTKVDKKVEPKSCDKTHTCPPCPAPEYYWGPMVFLFPPKPKDTLMISRTPEVTCVVVDVSDEDPEVKFNWYVDGVEVHNAKTKPREEQYNATYRVVSVLTVLHQDWLNGKEYKCKVSNKALPAPIEKTISKAKGQPREPQVCTLPPSRDELTKNQVSLWCLVKGFYPSDIAVEWESNGQPENNYKTTPPVLDSDGSFFLYSKLTVDKSRWQQGNVFSCSVMHEALHNHYTQKSLSLSP heavy 2: QDQLVQSGAEVKKPGASVKVSCKASGFNIKDTYIQWVRQAPGQGLEWMGRIDPLRKQTKYREKFEGRVTITADTSTNTAYMELSSLRSEDTAVYYCVRSGREFDYWGQGTLVTVSSASTKGPSVFPLAPSSKSTSGGTAALGCLVKDYFPEPVTVSWNSGALTSGVHTFPAVLQSSGLYSLSSVVTVPSSSLGTQTYICNVNHKPSNTKVDKKVEPKSCDKTHTCPPCPAPELLGGPSVFLFPPKPKDTLMISRTPEVTCVVVDVSHEDPEVKFNWYVDGVEVHNAKTKPREEQYNSTYRVVSVLTVLHQDWLNGKEYKCKVSNDALPMPIEETISKAKGQPREPQVYTLPPSRCELTKNQVSLSCAVKGFYPSDIAVEWESNGQPENNYKTTPPVLDSDGSFFLVSKLTVDKSRWQQGNVFSCSVMHEALHNHYTQKSLSLSP light: DIQMTQSPSSLSASVGDRVTITCRASQDIHKYIAWYQQKPGQAPRLLIQYTSTLQPGVPSRFSGSGSGTDYTFTISSLQPEDIATYYCLQYEQLRTFGGGTKVEIKRTVAAPSVFIFPPSDEQLKSGTASVVCLLNNFYPREAKVQWKVDNALQSGNSQESVTEQDSKDSTYSLSSTLTLSKADYEKHKVYACEVTHQGLSSPVTKSFNRGEC

The remaining lines, values behind:

Row | Binder | relative KD [1] [ratio] | relative KD [2] [ratio] | relative KD [3] [ratio] | relative KD [4] [ratio] | relative KD [5] [ratio]
3 | H240-Kn061/H240-Hl071/L73-k0 variant with S239I in H240-Kn061 (antibody, human IgG1, kappa, anti-epiregulin heterodimerized IgG1; also called H240-Kn061 S239I) heavy 1: QDQLVQSGAEVKKPGASVKVSCKASGFNIKDTYIQWVRQAPGQGLEWMGRIDPLRKQTKYREKFEGRVTITADTSTNTAYMELSSLRSEDTAVYYCVRSGREFDYWGQGTLVTVSSASTKGPSVFPLAPSSKSTSGGTAALGCLVKDYFPEPVTVSWNSGALTSGVHTFPAVLQSSGLYSLSSVVTVPSSSLGTQTYICNVNHKPSNTKVDKKVEPKSCDKTHTCPPCPAPEYYWGPIVFLFPPKPKDTLMISRTPEVTCVVVDVSDEDPEVKFNWYVDGVEVHNAKTKPREEQYNATYRVVSVLTVLHQDWLNGKEYKCKVSNKALPAPIEKTISKAKGQPREPQVCTLPPSRDELTKNQVSLWCLVKGFYPSDIAVEWESNGQPENNYKTTPPVLDSDGSFFLYSKLTVDKSRWQQGNVFSCSVMHEALHNHYTQKSLSLSP heavy 2: QDQLVQSGAEVKKPGASVKVSCKASGFNIKDTYIQWVRQAPGQGLEWMGRIDPLRKQTKYREKFEGRVTITADTSTNTAYMELSSLRSEDTAVYYCVRSGREFDYWGQGTLVTVSSASTKGPSVFPLAPSSKSTSGGTAALGCLVKDYFPEPVTVSWNSGALTSGVHTFPAVLQSSGLYSLSSVVTVPSSSLGTQTYICNVNHKPSNTKVDKKVEPKSCDKTHTCPPCPAPELLGGPSVFLFPPKPKDTLMISRTPEVTCVVVDVSHEDPEVKFNWYVDGVEVHNAKTKPREEQYNSTYRVVSVLTVLHQDWLNGKEYKCKVSNDALPMPIEETISKAKGQPREPQVYTLPPSRCELTKNQVSLSCAVKGFYPSDIAVEWESNGQPENNYKTTPPVLDSDGSFFLVSKLTVDKSRWQQGNVFSCSVMHEALHNHYTQKSLSLSP light: DIQMTQSPSSLSASVGDRVTITCRASQDIHKYIAWYQQKPGQAPRLLIQYTSTLQPGVPSRFSGSGSGTDYTFTISSLQPEDIATYYCLQYEQLRTFGGGTKVEIKRTVAAPSVFIFPPSDEQLKSGTASVVCLLNNFYPREAKVQWKVDNALQSGNSQESVTEQDSKDSTYSLSSTLTLSKADYEKHKVYACEVTHQGLSSPVTKSFNRGEC | 4.4 | 2.1 | 3.1 | 3 | 3.4
4 | H240-Kn061/H240-Hl071/L73-k0 variant with S239L in H240-Kn061 (antibody, human IgG1, kappa, anti-epiregulin heterodimerized IgG1; also called H240-Kn061 S239L) heavy 1: QDQLVQSGAEVKKPGASVKVSCKASGFNIKDTYIQWVRQAPGQGLEWMGRIDPLRKQTKYREKFEGRVTITADTSTNTAYMELSSLRSEDTAVYYCVRSGREFDYWGQGTLVTVSSASTKGPSVFPLAPSSKSTSGGTAALGCLVKDYFPEPVTVSWNSGALTSGVHTFPAVLQSSGLYSLSSVVTVPSSSLGTQTYICNVNHKPSNTKVDKKVEPKSCDKTHTCPPCPAPEYYWGPLVFLFPPKPKDTLMISRTPEVTCVVVDVSDEDPEVKFNWYVDGVEVHNAKTKPREEQYNATYRVVSVLTVLHQDWLNGKEYKCKVSNKALPAPIEKTISKAKGQPREPQVCTLPPSRDELTKNQVSLWCLVKGFYPSDIAVEWESNGQPENNYKTTPPVLDSDGSFFLYSKLTVDKSRWQQGNVFSCSVMHEALHNHYTQKSLSLSP heavy 2: QDQLVQSGAEVKKPGASVKVSCKASGFNIKDTYIQWVRQAPGQGLEWMGRIDPLRKQTKYREKFEGRVTITADTSTNTAYMELSSLRSEDTAVYYCVRSGREFDYWGQGTLVTVSSASTKGPSVFPLAPSSKSTSGGTAALGCLVKDYFPEPVTVSWNSGALTSGVHTFPAVLQSSGLYSLSSVVTVPSSSLGTQTYICNVNHKPSNTKVDKKVEPKSCDKTHTCPPCPAPELLGGPSVFLFPPKPKDTLMISRTPEVTCVVVDVSHEDPEVKFNWYVDGVEVHNAKTKPREEQYNSTYRVVSVLTVLHQDWLNGKEYKCKVSNDALPMPIEETISKAKGQPREPQVYTLPPSRCELTKNQVSLSCAVKGFYPSDIAVEWESNGQPENNYKTTPPVLDSDGSFFLVSKLTVDKSRWQQGNVFSCSVMHEALHNHYTQKSLSLSP light: DIQMTQSPSSLSASVGDRVTITCRASQDIHKYIAWYQQKPGQAPRLLIQYTSTLQPGVPSRFSGSGSGTDYTFTISSLQPEDIATYYCLQYEQLRTFGGGTKVEIKRTVAAPSVFIFPPSDEQLKSGTASVVCLLNNFYPREAKVQWKVDNALQSGNSQESVTEQDSKDSTYSLSSTLTLSKADYEKHKVYACEVTHQGLSSPVTKSFNRGEC | 4.8 | 2.4 | 3.4 | 3.4 | 3.7
